{"source": "paper PMC3605678", "about": "(The Journal of Biological Chemistry, 2013)", "key": {"ERK2": {"target": "ERK2 (Homo sapiens, UniProt P28482)", "sequence (P28482 whole entry)": "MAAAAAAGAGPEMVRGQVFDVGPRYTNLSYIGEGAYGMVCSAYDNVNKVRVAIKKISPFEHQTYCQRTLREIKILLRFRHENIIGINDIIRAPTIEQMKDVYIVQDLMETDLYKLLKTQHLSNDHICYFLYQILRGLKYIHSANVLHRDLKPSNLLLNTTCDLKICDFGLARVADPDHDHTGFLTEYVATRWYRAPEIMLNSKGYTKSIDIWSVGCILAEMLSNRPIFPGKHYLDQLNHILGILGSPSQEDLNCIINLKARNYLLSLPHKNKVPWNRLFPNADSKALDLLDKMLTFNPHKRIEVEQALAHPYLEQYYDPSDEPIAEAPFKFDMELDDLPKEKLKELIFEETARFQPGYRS", "assay": "FP-based binding affinity measurements with ERK2, direct titration"}, "[1]": {"target": "ERK5 kinase domain, ERK5-(1–431) (Homo sapiens, UniProt Q13164)", "sequence (Q13164 1-431)": "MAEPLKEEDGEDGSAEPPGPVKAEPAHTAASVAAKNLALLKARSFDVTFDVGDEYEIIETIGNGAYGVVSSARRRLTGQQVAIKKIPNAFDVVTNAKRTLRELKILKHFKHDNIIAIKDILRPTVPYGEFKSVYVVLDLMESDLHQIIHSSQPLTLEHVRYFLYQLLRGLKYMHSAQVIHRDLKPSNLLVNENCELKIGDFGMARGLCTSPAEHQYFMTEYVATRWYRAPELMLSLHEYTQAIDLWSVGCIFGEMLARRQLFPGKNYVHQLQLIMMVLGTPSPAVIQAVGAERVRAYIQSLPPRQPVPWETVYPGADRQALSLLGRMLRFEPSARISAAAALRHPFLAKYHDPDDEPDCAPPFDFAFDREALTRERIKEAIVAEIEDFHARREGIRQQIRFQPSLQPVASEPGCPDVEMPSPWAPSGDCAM", "assay": "Fluorescence polarization", "settings": "FP-based binding affinity measurements"}}}
{"molecule": "PB1-D: MKK5 construct (16–130) comprised of the PB1 domain and the linear D-motif (protein, UniProt Q13163 16-130, looked up, fragment, PB1 domain and D-motif) VLVIRIKIPNSGAVDWTVHSGPQLLFRDVLDVIGQVLPEATTTAFEYEDEDGDRITVRSDEEMKAMLSYYYSTVMEQQVNGQLIEPLQIFPRACKPPGERNIHGLKVNTRAGPSQ", "values": [{"measurement": "Binding to ERK2 (result in words)", "setting": "ERK2", "value": "did not bind"}, {"measurement": "Binding to ERK5 (result in words)", "setting": "[1]", "value": "submicromolar affinity"}]}
